The target of assay [1] is T1, Human CLEC12A-His (recombinant, K244 WT) (human, UniProt Q5QGZ9 65-265).
T1 construct: Made in house (Dragonfly Tx); also called hCLEC12A; hCLEC12A-His; not shown: His tag
T1 sequence: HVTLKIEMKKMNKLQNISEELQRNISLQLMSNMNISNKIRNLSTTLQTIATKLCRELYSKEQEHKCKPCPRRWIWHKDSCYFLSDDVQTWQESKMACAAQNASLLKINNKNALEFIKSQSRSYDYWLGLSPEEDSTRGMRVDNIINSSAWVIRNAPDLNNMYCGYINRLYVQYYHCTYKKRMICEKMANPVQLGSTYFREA
Briefly: SPR, two-state fit (ka1); fully purified protein after low pH hold. (In general: SPR reads the build-up and loss of mass on a sensor chip optically.)

The target in assay [2] is T1, Human CLEC12A-His (recombinant, K244 WT). Briefly: SPR, two-state fit; control sample.
Procedure: (§1) Briefly, human Fc specific antibodies were covalently immobilized at a density ˜8000-10000 resonance units (RU) on carboxy methyl dextran matrix of a CM5 biosensor chip via amine-coupling chemistry to create an anti-hFc IgG chip. […] Association was monitored for 300 seconds and dissociation was monitored for 600 seconds. Surfaces were regenerated between cycles with three pulses of 10 mM glycine-HCl, pH 1.7 injected for 20 seconds at 100 μl/min. HBS-EP+ (1×) with 0.1 mg/ml BSA was used as running buffer throughout the experiment. Experiments were performed at physiological temperature of 37° C. To obtain kinetic rate constants and overall binding affinity, double-referenced data were fit to a two-state kinetic model using Biacore 8K Insight Evaluation software (Cytiva).
For assay [3] the target is unchanged. Briefly: SPR, two-state fit (ka1); after low pH hold.
Procedure: as §1
A further assay addresses T2, Human CD32b (FcγRIIb) (human, UniProt P31994 46-217, limits assumed, biotinylated).
T2 construct: Bought recombinant receptor; also called hFcγRIIb; CD32b (FcγR2b)
T2 sequence (looked up): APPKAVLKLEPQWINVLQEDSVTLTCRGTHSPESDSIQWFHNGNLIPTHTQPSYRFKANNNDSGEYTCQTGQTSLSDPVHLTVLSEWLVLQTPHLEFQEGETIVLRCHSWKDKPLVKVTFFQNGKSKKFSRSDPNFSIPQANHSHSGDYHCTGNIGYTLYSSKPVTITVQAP
Kind of assay: SPR 25C, biotinylated CD32b captured.

Another assay has as its target T3, Human CD64 (human, UniProt P12314 16-288, biotinylated).
T3 construct: Bought recombinant receptor; also called hFcγRI; Human CD64 (FcγRI)
Briefly: SPR, human CD64 captured; average for AB0192.

In another assay the target is T4, Human CLEC12A-His (human, UniProt Q5QGZ9 65-265).
T4 construct: Recombinant soluble protein made in house; also called hCLEC12A-His; hCLEC12A; not shown: His tag
T4 sequence: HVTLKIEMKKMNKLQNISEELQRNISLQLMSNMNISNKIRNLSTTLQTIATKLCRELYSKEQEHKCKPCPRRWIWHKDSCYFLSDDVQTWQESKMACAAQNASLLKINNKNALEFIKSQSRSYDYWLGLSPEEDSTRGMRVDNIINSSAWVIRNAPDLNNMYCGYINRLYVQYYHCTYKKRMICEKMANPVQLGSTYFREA
Kind of assay: SPR; control sample (forced oxidation study).

Another assay concerns the target T5, mFc-hNKG2D (human, UniProt P26718 73-216).
T5 construct: extracellular domain; Recombinant mFc-tagged NKG2D dimer, made in house; also called human NKG2D; not shown: mouse Fc tag
T5 sequence (looked up): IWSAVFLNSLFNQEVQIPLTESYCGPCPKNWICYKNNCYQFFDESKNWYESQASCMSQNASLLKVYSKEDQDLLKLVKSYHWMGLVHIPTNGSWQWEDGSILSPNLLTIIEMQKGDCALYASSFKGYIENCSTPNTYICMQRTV
Briefly: SPR; control sample (forced oxidation study).

The target in another assay is T6, Human CD16a V158 (human, UniProt P08637 17-208, biotinylated).
T6 construct: Bought recombinant receptor; also called hCD16a (V158); hFcγRIIIa V158
Briefly: SPR; control sample (forced oxidation study).

Assay [4] concerns the target T7, human CLEC12A expressed on cells (human, UniProt Q5QGZ9 1-265).
T7 construct: Transduced isogenic cells or endogenous expression on AML cells; also called RMA-hCLEC12A; Ba/F3-hCLEC12A
T7 sequence: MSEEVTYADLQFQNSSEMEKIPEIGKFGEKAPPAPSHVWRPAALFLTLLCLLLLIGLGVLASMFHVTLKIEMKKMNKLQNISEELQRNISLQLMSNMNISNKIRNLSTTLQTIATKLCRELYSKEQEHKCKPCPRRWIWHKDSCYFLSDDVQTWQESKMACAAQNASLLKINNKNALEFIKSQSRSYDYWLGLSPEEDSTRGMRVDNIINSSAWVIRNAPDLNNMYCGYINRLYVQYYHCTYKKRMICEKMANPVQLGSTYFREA
Kind of assay: flow cytometry, hCLEC12A+ Ba/F3.

Assay [5] concerns the target T7, human CLEC12A expressed on cells. Briefly: flow cytometry, HL60.
The target of a further assay is T8, recombinant human CD64 (human, UniProt P12314 16-288, biotinylated).
T8 construct: also called hFcγRI; hCD64
Briefly: SPR, summary table.

Values joined by “and” are separate entries in the source; they are usually repeats but may differ in a detail not shown here. Identical values can stand only once.

T3 sequence (P12314 16-288 limits assumed): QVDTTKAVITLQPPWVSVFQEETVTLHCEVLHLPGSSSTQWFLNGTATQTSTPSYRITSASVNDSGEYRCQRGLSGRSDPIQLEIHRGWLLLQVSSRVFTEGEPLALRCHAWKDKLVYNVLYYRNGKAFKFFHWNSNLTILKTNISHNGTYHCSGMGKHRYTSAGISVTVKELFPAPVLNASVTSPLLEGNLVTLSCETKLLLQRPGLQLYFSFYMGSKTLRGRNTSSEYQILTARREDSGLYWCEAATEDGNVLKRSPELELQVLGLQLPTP
T6 sequence (P08637 17-208 F176V limits assumed): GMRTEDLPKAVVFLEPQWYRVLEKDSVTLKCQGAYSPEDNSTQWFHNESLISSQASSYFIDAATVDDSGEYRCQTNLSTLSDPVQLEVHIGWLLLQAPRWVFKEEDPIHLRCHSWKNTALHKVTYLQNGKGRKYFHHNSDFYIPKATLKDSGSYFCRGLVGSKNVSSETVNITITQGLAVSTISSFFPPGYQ
T8 sequence (P12314 16-288 limits assumed): as the sequence (P12314 16-288 limits assumed) above
Source text for recombinant human CD64: Human and cyno CD64, high and low affinity alleles of CD16a (V158 and F158, respectively), two alleles of CD32a (H131 and R131), CD16b, CD32b and cynomolgus CD16 were captured via biotin on a primed Biacore chip, prepared according to the manufacturer's instructions.

B1: AB0089 TriNKET (bispecific antibody, human IgG1, kappa)
chain: QLQLQESGPGLVKPSETLSLTCTVSGFSLTNYGLHWIRQPPGKCLEWIGVIWVGGATDYNPSLKSRVTISVDTSKNQFSLKLSSVQAADTAVYYCAKGDYGDTLDYWGQGTLVTVSSGGGGSGGGGSGGGGSGGGGSDIQMTQSPSSLSASVGDRVTITCHASQNINFWLSWYQQKPGKAPKLLIYEASNLHTGVPSRFSGSGSGTDFTLTISSLQPEDFATYYCQQSHSYPLTFGCGTKLEIKGSDKTHTCPPCPAPELLGGPSVFLFPPKPKDTLMISRTPEVTCVVVDVSHEDPEVKFNWYVDGVEVHNAKTKPREEQYNSTYRVVSVLTVLHQDWLNGKEYKCKVSNKALPAPIEKTISKAKGQPREPRVYTLPPCRDELTKNQVSLTCLVKGFYPSDIAVEWESNGQPENNYKTTPPVLVSDGSFTLYSKLTVDKSRWQQGNVFSCSVMHEALHNHYTQKSLSLSPG
heavy: EVQLVESGGGLVKPGGSLRLSCAASGFTFSSYSMNWVRQAPGKGLEWVSSISSSSSYIYYADSVKGRFTISRDNAKNSLYLQMNSLRAEDTAVYYCARGAPIGAAAGWFDPWGQGTLVTVSSASTKGPSVFPLAPSSKSTSGGTAALGCLVKDYFPEPVTVSWNSGALTSGVHTFPAVLQSSGLYSLSSVVTVPSSSLGTQTYICNVNHKPSNTKVDKKVEPKSCDKTHTCPPCPAPELLGGPSVFLFPPKPKDTLMISRTPEVTCVVVDVSHEDPEVKFNWYVDGVEVHNAKTKPREEQYNSTYRVVSVLTVLHQDWLNGKEYKCKVSNKALPAPIEKTISKAKGQPREPQVCTLPPSRDELTENQVSLTCLVKGFYPSDIAVEWESNGQPENNYKTTPPVLDSDGSFFLYSWLTVDKSRWQQGNVFSCSVMHEALHNHYTQKSLSLSPG
light: DIQMTQSPSSVSASVGDRVTITCRASQGISSWLAWYQQKPGKAPKLLIYAASSLQSGVPSRFSGSGSGTDFTLTISSLQPEDFATYYCQQGVSFPRTFGGGTKVEIKRTVAAPSVFIFPPSDEQLKSGTASVVCLLNNFYPREAKVQWKVDNALQSGNSQESVTEQDSKDSTYSLSSTLTLSKADYEKHKVYACEVTHQGLSSPVTKSFNRGEC
notes: F3' format heterodimer of three chains; human IgG1 Fc with EW-RVT and Y349C/S354C mutations; also called AB0089 Lot AB0089-002; CLEC12A TriNKET AB0089
As to B1, the kon (in general, the second-order rate constant of association) in assay [1] was 1.02e+07 M⁻¹ s⁻¹; in assay [3], 1.11e+07 M⁻¹ s⁻¹. The Kd (usually the free concentration of one partner at which half of the binding sites on the other are occupied at equilibrium, for simple one-to-one binding) in assay [2] is 0.9 nM; with Human CD32b (FcγRIIb) it was 7100 nM and 5300 nM and 7400 nM.

B2: AB0192 TriNKET (other)
chain: EVQLVESGGGVVQPGGSLRLSCAASGFTFNAFGMHWVRQAPGKCLEWVAFISSGSTSIYYANTVKGRFTISRDNSKNTLYLQMNSLRAEDTAVYYCARDGYPTGGAMDYWGQGTSVTVSSGGGGSGGGGSGGGGSGGGGSDIQMTQSPSSLSASVGDRVTITCKASQDIYNYLSWFQQKPGKAPKPLIYRANILVSGVPSRFSGSGSGQDYTFTISSLQPEDIATYYCLQFDAFPFTFGCGTKLEIKGSDKTHTCPPCPAPELLGGPSVFLFPPKPKDTLMISRTPEVTCVVVDVSHEDPEVKFNWYVDGVEVHNAKTKPREEQYNSTYRVVSVLTVLHQDWLNGKEYKCKVSNKALPAPIEKTISKAKGQPREPRVYTLPPCRDELTKNQVSLTCLVKGFYPSDIAVEWESNGQPENNYKTTPPVLVSDGSFTLYSKLTVDKSRWQQGNVFSCSVMHEALHNHYTQKSLSLSPG
heavy: EVQLVESGGGLVKPGGSLRLSCAASGFTFSSYSMNWVRQAPGKGLEWVSSISSSSSYIYYADSVKGRFTISRDNAKNSLYLQMNSLRAEDTAVYYCARGAPIGAAAGWFDPWGQGTLVTVSSASTKGPSVFPLAPSSKSTSGGTAALGCLVKDYFPEPVTVSWNSGALTSGVHTFPAVLQSSGLYSLSSVVTVPSSSLGTQTYICNVNHKPSNTKVDKKVEPKSCDKTHTCPPCPAPELLGGPSVFLFPPKPKDTLMISRTPEVTCVVVDVSHEDPEVKFNWYVDGVEVHNAKTKPREEQYNSTYRVVSVLTVLHQDWLNGKEYKCKVSNKALPAPIEKTISKAKGQPREPQVCTLPPSRDELTENQVSLTCLVKGFYPSDIAVEWESNGQPENNYKTTPPVLDSDGSFFLYSWLTVDKSRWQQGNVFSCSVMHEALHNHYTQKSLSLSPG
light: DIQMTQSPSSVSASVGDRVTITCRASQGISSWLAWYQQKPGKAPKLLIYAASSLQSGVPSRFSGSGSGTDFTLTISSLQPEDFATYYCQQGVSFPRTFGGGTKVEIKRTVAAPSVFIFPPSDEQLKSGTASVVCLLNNFYPREAKVQWKVDNALQSGNSQESVTEQDSKDSTYSLSSTLTLSKADYEKHKVYACEVTHQGLSSPVTKSFNRGEC
notes: the condition stands under assay; also called AB0192 Lot AB0192-005
With B2, the Kd with Human CD64 was 5.2 nM; in the assay with Human CLEC12A-His, 1.68 nM; with mFc-hNKG2D it was 598 nM; with Human CD16a V158, 177 nM. Also, the koff (usually a measure of how fast the partners let go of each other) in the assay with Human CD64 came out at 0.00025 s⁻¹; in the assay with Human CLEC12A-His, 0.00129 s⁻¹; with mFc-hNKG2D, 0.124 s⁻¹; with Human CD16a V158 it was 0.0202 s⁻¹. Moreover, the kon worked out at 48000 M⁻¹ s⁻¹ with Human CD64, 771000 M⁻¹ s⁻¹ with Human CLEC12A-His, 208000 M⁻¹ s⁻¹ in the assay with mFc-hNKG2D and 115000 M⁻¹ s⁻¹ with Human CD16a V158.

B3: F3'-1602 TriNKET (other)
chain: QLQLQESGPGLVKPSETLSLTCTVSGFSLTNYGLHWIRQPPGKCLEWIGVIWSGGKTDYNPSLKSRVTISKDTSKNQFSLKLSSVQAADTAVYYCAKYDYDDSLDYWGQGTLVTVSSGGGGSGGGGSGGGGSGGGGSDIQMTQSPSSLSASVGDRVTITCHASQNINFWLSWYQQKPGKAPKLLIYEASNLHTGVPSRFSGSGSGTRFTLTISSLQPEDIATYYCQQSHSYPLTFGCGTKLEIKGSDKTHTCPPCPAPELLGGPSVFLFPPKPKDTLMISRTPEVTCVVVDVSHEDPEVKFNWYVDGVEVHNAKTKPREEQYNSTYRVVSVLTVLHQDWLNGKEYKCKVSNKALPAPIEKTISKAKGQPREPRVYTLPPCRDELTKNQVSLTCLVKGFYPSDIAVEWESNGQPENNYKTTPPVLVSDGSFTLYSKLTVDKSRWQQGNVFSCSVMHEALHNHYTQKSLSLSPG
heavy: EVQLVESGGGLVKPGGSLRLSCAASGFTFSSYSMNWVRQAPGKGLEWVSSISSSSSYIYYADSVKGRFTISRDNAKNSLYLQMNSLRAEDTAVYYCARGAPIGAAAGWFDPWGQGTLVTVSSASTKGPSVFPLAPSSKSTSGGTAALGCLVKDYFPEPVTVSWNSGALTSGVHTFPAVLQSSGLYSLSSVVTVPSSSLGTQTYICNVNHKPSNTKVDKKVEPKSCDKTHTCPPCPAPELLGGPSVFLFPPKPKDTLMISRTPEVTCVVVDVSHEDPEVKFNWYVDGVEVHNAKTKPREEQYNSTYRVVSVLTVLHQDWLNGKEYKCKVSNKALPAPIEKTISKAKGQPREPQVCTLPPSRDELTENQVSLTCLVKGFYPSDIAVEWESNGQPENNYKTTPPVLDSDGSFFLYSWLTVDKSRWQQGNVFSCSVMHEALHNHYTQKSLSLSPG
light: DIQMTQSPSSVSASVGDRVTITCRASQGISSWLAWYQQKPGKAPKLLIYAASSLQSGVPSRFSGSGSGTDFTLTISSLQPEDFATYYCQQGVSFPRTFGGGTKVEIKRTVAAPSVFIFPPSDEQLKSGTASVVCLLNNFYPREAKVQWKVDNALQSGNSQESVTEQDSKDSTYSLSSTLTLSKADYEKHKVYACEVTHQGLSSPVTKSFNRGEC
notes: CLEC12A scFv-Fc, NKG2D A49MI Fab-Fc, human IgG1 Fc; also called AB0237
For B3, the concentration giving a half-maximal response (EC50) (commonly the concentration needed to bring the measured effect to its halfway point) in [4] worked out at 3.2 nM; in assay [5] it was 1.1 nM. Further, the Kd in the assay with recombinant human CD64 was 5.2 nM.

The values are drawn from patent US20220119534A1 (DRAGONFLY THERAPEUTICS, published 2022).
